# ± gives the standard error. For some assays here: Fewer inactive variants are shown than the library holds.
# B1: glmS ribozyme (parent)
# chain: AUAAAAGCGCCAGAACUACAGAAAUGUAGUUGACGAGGAGGAGGUUUAUCGAAUUUUCGGCGGAUGCCUCCAAA
# Experiments:
# Details in all cases: with glucosamine-6-phosphate
# glucosamine-6-phosphate [1] = variants of: B1; assay: kcat; higher = faster cleavage; RNA array
# Method in brief: (§1)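 Using a hybridised Cy3 probe at 37 °C, barcoded ribozyme variants transcribed in situ by E. coli RNA polymerase on sequenced MiSeq chips were monitored across tiles imaged over ~14 h. The flow contained glucosamine-6-phosphate from 40 μM to 10 mM in HEPES/KCl/Mg(OAc)2 buffer. Signals were normalised to baseline and to non-cleaving reference variants before per-tile medians were fit to one- or two-exponential decays to yield kobs. Weighted Michaelis–Menten fits across concentrations gave kcat and KM.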
# glucosamine-6-phosphate [2] = variants of: B1; assay: self-cleavage kobs at 640 uM GlcN6P; higher = faster cleavage; RNA array
# Method in brief: as §1
# glucosamine-6-phosphate [3] = variants of: B1; assay: self-cleavage kobs at 2500 uM GlcN6P; higher = faster cleavage; RNA array
# Method in brief: as §1
# glucosamine-6-phosphate [4] = variants of: B1; assay: KM; higher = weaker cofactor use; RNA array
# Method in brief: as §1
# glucosamine-6-phosphate [5] = variants of: B1; assay: self-cleavage kobs at 40 uM GlcN6P; higher = faster cleavage; RNA array
# Method in brief: as §1
# glucosamine-6-phosphate [6] = variants of: B1; assay: self-cleavage kobs at 160 uM GlcN6P; higher = faster cleavage; RNA array
# Method in brief: as §1
# glucosamine-6-phosphate [7] = variants of: B1; assay: self-cleavage kobs at 10000 uM GlcN6P; higher = faster cleavage; RNA array
# Method in brief: as §1
Variant,kcat (glucosamine-6-phosphate [1]),self-cleavage kobs at 640 uM GlcN6P (glucosamine-6-phosphate [2]),self-cleavage kobs at 2500 uM GlcN6P (glucosamine-6-phosphate [3]),KM (glucosamine-6-phosphate [4]),self-cleavage kobs at 40 uM GlcN6P (glucosamine-6-phosphate [5]),self-cleavage kobs at 160 uM GlcN6P (glucosamine-6-phosphate [6]),self-cleavage kobs at 10000 uM GlcN6P (glucosamine-6-phosphate [7])
G29C C68G,2.94e-05 ± 9e-06 s⁻¹,5.49e-05 ± 1.9e-05 s⁻¹,3.19e-05 ± 1.5e-05 s⁻¹,–,–,–,–
U30C U65A,2.91e-05 ± 1.2e-05 s⁻¹,–,3.76e-05 ± 1.2e-05 s⁻¹,–,–,–,–
G29A A42G,0.00587 ± 0.0021 s⁻¹,0.00227 ± 0.00083 s⁻¹,0.00308 ± 0.0011 s⁻¹,1120 ± 510 µM,0.00025 ± 4.4e-05 s⁻¹,0.000587 ± 0.00015 s⁻¹,0.00757 ± 0.0021 s⁻¹
U30A U46C,0.000377 ± 6.9e-05 s⁻¹,0.000117 ± 3.5e-05 s⁻¹,–,1730 ± 750 µM,–,–,0.000332 ± 7e-05 s⁻¹
U30A U46G,0.000804 ± 0.00016 s⁻¹,–,0.000638 ± 0.00022 s⁻¹,–,4.09e-05 ± 1.5e-05 s⁻¹,–,0.000702 ± 8.5e-05 s⁻¹
U30A U46A,0.00042 ± 5.2e-05 s⁻¹,–,0.000372 ± 0.0001 s⁻¹,–,–,–,0.000363 ± 5.1e-05 s⁻¹
U30G A52G,0.000498 ± 6.7e-05 s⁻¹,9.63e-05 ± 1.4e-05 s⁻¹,0.00033 ± 5.9e-05 s⁻¹,2430 ± 620 µM,–,4.03e-05 ± 2e-05 s⁻¹,0.000388 ± 4.4e-05 s⁻¹
U30A U56C,0.0028 ± 0.00091 s⁻¹,0.000126 ± 2.4e-05 s⁻¹,0.000369 ± 8.1e-05 s⁻¹,–,–,–,0.00113 ± 0.00015 s⁻¹
G29C C67G,8e-05 ± 4.8e-06 s⁻¹,–,4.84e-05 ± 1.1e-05 s⁻¹,1430 ± 280 µM,–,–,7.18e-05 ± 1.4e-05 s⁻¹
U30C U56A,0.000339 ± 6.9e-06 s⁻¹,6.11e-05 ± 6.9e-06 s⁻¹,0.000155 ± 1.6e-05 s⁻¹,2910 ± 110 µM,–,–,0.000263 ± 2.4e-05 s⁻¹
C16U G41C,0.000304 ± 4.3e-05 s⁻¹,0.000139 ± 3.6e-05 s⁻¹,0.000244 ± 3.8e-05 s⁻¹,1030 ± 370 µM,–,2.95e-05 ± 1.4e-05 s⁻¹,0.000246 ± 4.5e-05 s⁻¹
G29A C70A,3.87e-05 ± 5e-06 s⁻¹,4.17e-05 ± 1.5e-05 s⁻¹,4.02e-05 ± 1.1e-05 s⁻¹,–,–,–,2.96e-05 ± 1.4e-05 s⁻¹
G29C U55C,0.00285 ± 0.001 s⁻¹,0.000561 ± 0.0001 s⁻¹,0.00116 ± 0.00023 s⁻¹,3510 ± 1600 µM,5.28e-05 ± 1.7e-05 s⁻¹,0.00011 ± 1.7e-05 s⁻¹,0.00205 ± 0.00062 s⁻¹
G29C U49G,1.82e-05 ± 5.3e-06 s⁻¹,–,–,–,< 1e-05 s⁻¹,–,–
U30C C58G,2e-05 ± 1.6e-06 s⁻¹,< 1e-05 s⁻¹,–,–,–,–,–
U30C C58U,3.26e-05 ± 1.4e-05 s⁻¹,< 1e-05 s⁻¹,–,–,–,–,–
G29C G32U A33U C50G U56G G66C U69C,1.64e-05 ± 5.6e-06 s⁻¹,–,–,–,–,–,–
U30G A42U C67G,0.00016 ± 2.9e-05 s⁻¹,8.82e-05 ± 2.3e-05 s⁻¹,0.000107 ± 2.9e-05 s⁻¹,–,–,–,0.000167 ± 4.5e-05 s⁻¹
G29A A33C,5.32e-05 ± 1.2e-05 s⁻¹,–,5.47e-05 ± 1.8e-05 s⁻¹,–,< 1e-05 s⁻¹,–,4.65e-05 ± 1.4e-05 s⁻¹

# Reference: the supplement of paper PMC7125110
